# Assay results taken from US20240148892A1 (DUALITY BIOLOGICS SUZHOU, published 2024).
# T1: human full-length B7H3 expressed on MCF-7 cells (human, UniProt Q5ZPR3 29-534)
# T1 sequence: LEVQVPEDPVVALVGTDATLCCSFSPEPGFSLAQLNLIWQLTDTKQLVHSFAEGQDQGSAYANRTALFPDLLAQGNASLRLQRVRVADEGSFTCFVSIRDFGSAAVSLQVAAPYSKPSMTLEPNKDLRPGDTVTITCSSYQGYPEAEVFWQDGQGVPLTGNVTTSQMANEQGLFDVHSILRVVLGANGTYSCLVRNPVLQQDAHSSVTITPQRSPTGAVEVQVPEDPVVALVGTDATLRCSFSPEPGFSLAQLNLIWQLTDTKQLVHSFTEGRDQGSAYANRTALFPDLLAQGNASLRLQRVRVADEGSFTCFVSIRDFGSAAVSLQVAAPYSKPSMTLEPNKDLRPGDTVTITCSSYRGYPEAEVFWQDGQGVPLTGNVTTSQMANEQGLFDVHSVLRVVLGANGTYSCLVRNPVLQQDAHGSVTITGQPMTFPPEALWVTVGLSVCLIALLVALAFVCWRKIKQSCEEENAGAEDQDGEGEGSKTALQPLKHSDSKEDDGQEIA
# T2: Human B7-H3(4Ig), His Tag (human, UniProt Q5ZPR3 29-461)
# T2 construct: Bought protein; also called recombinant human B7H3 antigen; human B7-H3 protein; not shown: His tag
# T2 sequence (looked up): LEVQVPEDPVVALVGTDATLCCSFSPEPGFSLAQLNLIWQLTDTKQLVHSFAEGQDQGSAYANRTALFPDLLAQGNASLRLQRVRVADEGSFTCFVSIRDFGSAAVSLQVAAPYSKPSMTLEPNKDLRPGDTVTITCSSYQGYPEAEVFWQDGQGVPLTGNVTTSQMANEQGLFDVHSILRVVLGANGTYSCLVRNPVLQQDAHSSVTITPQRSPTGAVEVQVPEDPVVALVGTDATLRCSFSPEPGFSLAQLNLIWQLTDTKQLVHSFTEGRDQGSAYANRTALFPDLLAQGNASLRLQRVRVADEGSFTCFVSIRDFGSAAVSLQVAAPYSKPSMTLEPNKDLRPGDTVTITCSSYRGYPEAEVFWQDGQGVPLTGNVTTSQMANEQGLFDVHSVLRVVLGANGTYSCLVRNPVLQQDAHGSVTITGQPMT
# T3: Human B7-H6 (human, UniProt Q68D85 25-262)
# T3 construct: Bought protein; also called human B7-H6 protein; ACRO B76-H52H8
# T3 sequence (looked up): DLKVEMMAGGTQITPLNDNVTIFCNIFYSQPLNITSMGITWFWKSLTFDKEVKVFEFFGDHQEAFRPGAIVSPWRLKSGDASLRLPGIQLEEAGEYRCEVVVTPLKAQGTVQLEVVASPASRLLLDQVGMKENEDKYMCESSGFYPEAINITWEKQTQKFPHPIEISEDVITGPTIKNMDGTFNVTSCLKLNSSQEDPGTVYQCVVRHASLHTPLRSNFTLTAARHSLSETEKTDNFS
# T4: Human B7-1 protein, His Tag (human, UniProt P33681 35-242)
# T4 construct: Bought protein; also called ACRO B71-H5228; not shown: His tag
# T4 sequence (looked up): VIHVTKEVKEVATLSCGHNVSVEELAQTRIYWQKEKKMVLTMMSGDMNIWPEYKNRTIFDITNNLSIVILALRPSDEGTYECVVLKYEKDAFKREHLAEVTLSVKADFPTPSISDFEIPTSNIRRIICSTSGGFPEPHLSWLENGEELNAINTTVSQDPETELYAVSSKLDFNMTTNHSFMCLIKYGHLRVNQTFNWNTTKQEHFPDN
# T5: Human PD-L2, His Tag (confirmed by SPR) (human, UniProt Q9BQ51 20-219)
# T5 construct: Bought protein; also called human PD-L2 protein; ACRO PD2-H5220; not shown: His tag
# T5 sequence (looked up): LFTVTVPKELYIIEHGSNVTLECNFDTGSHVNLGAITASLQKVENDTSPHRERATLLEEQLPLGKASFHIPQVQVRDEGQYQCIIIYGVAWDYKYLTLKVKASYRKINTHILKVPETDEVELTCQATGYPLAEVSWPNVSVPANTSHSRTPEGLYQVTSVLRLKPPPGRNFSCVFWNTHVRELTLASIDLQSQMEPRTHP
# T6: Human B7-H4 protein, His Tag (human, UniProt Q7Z7D3 29-258)
# T6 construct: Bought protein; also called ACRO B74-H5222; not shown: His tag
# T6 sequence (looked up): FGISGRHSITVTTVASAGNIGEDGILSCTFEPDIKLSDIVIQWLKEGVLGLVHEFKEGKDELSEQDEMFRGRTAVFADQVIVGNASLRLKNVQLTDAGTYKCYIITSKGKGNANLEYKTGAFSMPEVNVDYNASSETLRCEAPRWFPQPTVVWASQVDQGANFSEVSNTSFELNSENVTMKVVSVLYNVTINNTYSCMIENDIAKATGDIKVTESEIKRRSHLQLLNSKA
# B1: W301088-1.145.16-z3-p1-uIgG1KV320 (antibody, V domains shown)
# VH: QVQLQESGPGLVKPSQTLSLTCTVTDYSITGDYAWNWIRQHPGKGLEWIGYISYSGSTSYNPSLQSRVTISRDTSKNQFSLKLSSVTAADTAVYFCARSLGRRWYFVVWGQGTTVTVSS
# VL: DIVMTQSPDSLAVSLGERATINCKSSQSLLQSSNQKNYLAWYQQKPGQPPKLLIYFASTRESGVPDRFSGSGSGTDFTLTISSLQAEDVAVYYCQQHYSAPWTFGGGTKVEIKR
# notes: Humanized, PTM-removed (VL N027dQ) human IgG1 LALA kappa antibody; also called WBP301088; W301088-z3-p1
# Legend:
# [1] = biological target: T1, human full-length B7H3 expressed on …; test: cell-based or functional assay
# [2] = biological target: T2, Human B7-H3(4Ig), His Tag; test: ELISA, plate coated with 2 µg/mL recombinant human B7-H3 (4Ig) His, serially diluted antibody, HRP anti-human secondary antibody, OD450
# Description: A 96-well ELISA plate was coated with 2 μg/mL recombinant human B7H3 antigen (see the table above) at 30 μL/well and kept at 4° C. overnight. The following day, the well plate was washed 3 times with PBST and then blocked with 5% skim milk for 2 h. […] The plate was then washed 3 times with PBST, and an HRP-labeled anti-human secondary antibody diluted in a 1:5000 ratio was then added at 100 μL/well and incubated for 1 h. After the incubation was complete, the plate was washed six times with PBST, and TMB (SurModics, TMBS-1000-01) was added for color development. Based on the results of the color development, the reaction was stopped by adding 2M HCl, and the plate was read by a microplate reader (Molecular Devices, SpecterMax 190) at OD450.
# [3] = biological target: T3, Human B7-H6; test: ELISA, B7 family protein immobilized on plate, serially diluted antibody
# Description: (§1) Human PD-Ll protein (see the table above), human B7-H2 protein, human B7-H3 protein, human B7-H4 protein, human B7-H5 protein, human B7-H6 protein, human B7-1 protein, human B7-2 protein, human PD-L2 protein, human B7-H7 protein, and human BTNL2 protein were separately immobilized on 96-well plates by incubation at 4° C. overnight. The 96-well plates were then blocked by incubation with 1% BSA in PBS at 37° C. for 1 h. After blocking, the 96-well plates were washed 3 times with PBST (PBS containing 0.05% Tween 20). […] After incubation, the 96-well plates were washed 3 times with PBST, incubated with a secondary antibody (see the table above) in binding buffer at 37° C. for 1 h, and then washed again. TMB was added for color development, and the reaction was stopped by 1 M H₂SO₄.
# [4] = biological target: T4, Human B7-1 protein, His Tag; test: as above
# Description: as §1
# [5] = biological target: T5, Human PD-L2, His Tag (confirmed by SPR); test: as above
# Description: as §1
# [6] = biological target: T6, Human B7-H4 protein, His Tag; test: as above
# Description: as §1
binder,measurement,setting,value
B1,"Antibody internalization EC50, MCF-7 cells (value in running text, differs from Table 16)",[1],0.51 nM
same,EC50 (read off the curve),[2],~0.2 µg/mL
same,binding result,[3],no binding
same,binding result,[4],no binding
same,binding result,[5],no binding
same,binding result,[6],no binding
